# Patent US6830925
# T1: CREBtide
# T1 chain: KRREILSRRPSYR
# T2: Calmodulin Dependent Protein Kinase Substrate
# T2 chain: PLSRTLSVSS
# T3: Syntide 2
# T3 chain: PLARTLSVAGLPGKK
# B1: Xpress-CaMK-X1 fusion protein (CaMK-X1 coding sequence fused to the Xpress epitope, stably expressed in HEK293 cells) (protein)
# chain: MGRKEEDDCSSWKKQTTNIRKTFIFMEVLGSGAFSEVFLVKQRLTGKLFALKCIKKSPAFRDSSLENEIAVLKKIKHENIVTLEDIYESTTHYYLVMQLVSGGELFDRILERGVYTEKDASLVIQQVLSAVKYLHENGIVHRDLKPENLLYLTPEENSKIMITDFGLSKMEQNGIMSTACGTPGYVAPEVLAQKPYSKAVDCWSIGVITYILLCGYPPFYEETESKLFEKIKEGYYEFESPFWDDISESAKDFICHLLEKDPNERYTCEKALSHPWIDGNTALHRDIYPSVSLQIQKNFAKSKWRQAFNAAAVVHHMRKLHMNLHSPGVRPEVENRPPETQASETSRPSSPEITITEAPVLDHSVALPALTQLPCQHGRRPTAPGGRSLNCLVNGSLHISSSLVPMHQGSLAAGPCGCCSSCLNIGSKGKSSYCSEPTLLKKANKKQNFKSEVMVPVKASGSSHCRAGQTGVCLIM
# B2: Histidine tagged CaMK-X1 expressed in Sf9 cells and purified with a Ni2+ affinity column (protein)
# chain: MGRKEEDDCSSWKKQTTNIRKTFIFMEVLGSGAFSEVFLVKQRLTGKLFALKCIKKSPAFRDSSLENEIAVLKKIKHENIVTLEDIYESTTHYYLVMQLVSGGELFDRILERGVYTEKDASLVIQQVLSAVKYLHENGIVHRDLKPENLLYLTPEENSKIMITDFGLSKMEQNGIMSTACGTPGYVAPEVLAQKPYSKAVDCWSIGVITYILLCGYPPFYEETESKLFEKIKEGYYEFESPFWDDISESAKDFICHLLEKDPNERYTCEKALSHPWIDGNTALHRDIYPSVSLQIQKNFAKSKWRQAFNAAAVVHHMRKLHMNLHSPGVRPEVENRPPETQASETSRPSSPEITITEAPVLDHSVALPALTQLPCQHGRRPTAPGGRSLNCLVNGSLHISSSLVPMHQGSLAAGPCGCCSSCLNIGSKGKSSYCSEPTLLKKANKKQNFKSEVMVPVKASGSSHCRAGQTGVCLIM
# Tests used:
# CREBtide = biological target: T1, CREBtide
# [1] = biological target: T2, Calmodulin Dependent Protein Kinase …
# Syntide 2 = biological target: T3, Syntide 2
# [2] = biological target: calmodulin (CalBiochem), P0DP23
Protein,in vitro kinase assay (32P incorporation) with immunoprecipitated CaMK-X1 (CREBtide),in vitro kinase assay (32P incorporation) with immunoprecipitated CaMK-X1 [1],in vitro kinase assay (32P incorporation) with immunoprecipitated CaMK-X1 (Syntide 2),in vitro kinase assay (32P incorporation into peptides) with and without calmodulin [2],in vitro kinase assay (32P incorporation) with Ni2+ purified CaMK-X1 (CREBtide),in vitro kinase assay (32P incorporation) with Ni2+ purified CaMK-X1 [1],in vitro kinase assay (32P incorporation) with Ni2+ purified CaMK-X1 (Syntide 2),in vitro kinase assay (rate of peptide phosphorylation) with and without Ca2+ and calmodulin [2]
B1,CaMK-X1 phosphorylated CREBtide and Syntide 2 in vitro,"In contrast, CaMK-X1 could not phosphorylate control peptide",CaMK-X1 phosphorylated CREBtide and Syntide 2 in vitro,The degree of phosphorylation is augmented in the presence of calmodulin,–,–,–,–
B2,–,–,–,–,CREBtide and Syntide 2 are phosphorylated by the purified CaMK-X1,Syntide 2 and CREBtide had higher incorporation of ^32P than the control peptide,CREBtide and Syntide 2 are phosphorylated by the purified CaMK-X1,The rate of phosphorylation is increased in the presence of Ca^2+ and calmodulin
